Measured values from publication PMC8654239, “The neutrophil protein CD177 is a novel PDPN receptor that regulates human cancer-associated fibroblast physiology” (PLoS ONE, 2021).

Assays:
[1] = target: PDPN ectodomain, monomeric, Avi-tagged, site-specifically biotinylated (Fc tag removed) (human) (UniProt Q86YL7)
[2] = target: CD177 recombinant ectodomain, Fc-tagged (human) (UniProt Q8N6Q3); assay: SPR; CLEC-2 or CD177 ectodomains immobilised by amine coupling, 300-400 resonance units; Avi-tagged monomeric PDPN ectodomain as analyte; equilibrium fit for CD177, Langmuir model for CLEC-2
Sequence of CD177 recombinant ectodomain, Fc-tagged (human) (Q8N6Q3 22-408): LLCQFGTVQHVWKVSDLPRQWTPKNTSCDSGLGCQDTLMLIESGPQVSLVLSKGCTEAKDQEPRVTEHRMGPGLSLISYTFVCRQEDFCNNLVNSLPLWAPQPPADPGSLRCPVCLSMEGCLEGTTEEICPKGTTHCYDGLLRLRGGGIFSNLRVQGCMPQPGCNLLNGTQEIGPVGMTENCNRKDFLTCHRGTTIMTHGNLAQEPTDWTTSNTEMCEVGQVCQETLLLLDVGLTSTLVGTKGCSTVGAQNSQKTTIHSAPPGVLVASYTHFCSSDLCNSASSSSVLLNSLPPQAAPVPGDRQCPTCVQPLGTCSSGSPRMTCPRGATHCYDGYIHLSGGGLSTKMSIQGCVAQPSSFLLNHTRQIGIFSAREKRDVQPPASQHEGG

[3] = target: T1, CLEC-2 recombinant ectodomain, Fc-tagged (human, UniProt Q9P126 55-229); assay: as above; conditions: both partners purified
T1 construct: C-type lectin receptor CLEC-2 (CLEC1B), human, ectodomain; The methods describe a general pRK5 vector with a C-terminal human Fc tag; CLEC-2 is a type II membrane protein, so the real end of the Fc may differ; also called Clec1b; recombinant human CLEC-2
T1 sequence (Q9P126 55-229): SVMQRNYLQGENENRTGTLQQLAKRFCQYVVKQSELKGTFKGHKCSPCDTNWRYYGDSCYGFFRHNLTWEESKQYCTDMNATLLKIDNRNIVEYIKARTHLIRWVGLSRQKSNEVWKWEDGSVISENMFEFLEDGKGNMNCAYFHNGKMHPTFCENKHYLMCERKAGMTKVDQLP

[4] = target: T1, CLEC-2 recombinant ectodomain, Fc-tagged; assay: SPR; CLEC-2 or CD177 ectodomains immobilised by amine coupling on GLC (Proteon XPR36) or CM5 (Biacore 3000) chips; Avi-Fc-tagged PDPN as soluble analyte at the indicated concentrations; PBS with 0.01% Tween-20 (Proteon) or HBS-P pH 7.4 (Biacore); conditions: both partners purified

## CD177 recombinant ectodomain, Fc-tagged (from UniProt Q8N6Q3 22-408) (Fc fusion)
[1]
  inhibition of CAF contractility (gel contraction assay) by recombinant CD177: 20%

B1: PDPN ectodomain, monomeric, Avi-tagged, site-specifically biotinylated (Fc tag removed) (domain or fragment, human, UniProt Q86YL7 23-131, looked up)
chain: ASTGQPEDDTETTGLEGGVAMPGAEDDVVTPGTSEDRYKSGLTTLVATSVNSVTGIRIEDLPTSESTVHAQEQSPSATASNVATSHSTEKVDGDTQTTVEKDGLSTVTL
modifications: biotin on the Avi tag (site-specific, in vitro, BirA)
notes: podoplanin (PDPN), human, ectodomain; the methods describe biotinylation of the Avi-tagged product after removal of the Fc; Also used here as the PDPN of the functional rows (there PDPN is endogenous on fibroblasts); also called podoplanin; gp38; source: mammalian cells, purified; biotinylated in vitro with BirA; not shown: Fc (human IgG1), C-terminal, cleaved
[2]
  Kd: 3300 nM
[3]
  Kd: 210 ± 0.3 nM

B2: PDPN ectodomain, Avi-Fc-tagged (Fc fusion, human, UniProt Q86YL7 23-131, looked up)
chain: ASTGQPEDDTETTGLEGGVAMPGAEDDVVTPGTSEDRYKSGLTTLVATSVNSVTGIRIEDLPTSESTVHAQEQSPSATASNVATSHSTEKVDGDTQTTVEKDGLSTVTL
notes: podoplanin (PDPN), human, ectodomain; pRK5 vector with C-terminal human IgG1 Fc; also called Avi-Fc-tagged PDPN; AviFc-tagged PDPN; source: mammalian cells, purified; not shown: Fc (human IgG1), C-terminal, kept
[4]
  binding result: binds
